Experimental data taken from patent publication US20140186294A1, “PHAGOCYTIC ACTIVITY AS A MARKER OF SYNUCLEINOPATHIC DISEASE” (ELAN PHARMACEUTICALS, INC., priority 2010, published 2014).

Key:
microglia = test: Flow cytometry phagocytosis assay with strepavidin or biotin beads; type: cell-based; settings: 30 minutes pretreatment, beads 90 minutes
Protocol: Phagocytosis assay: 6 μm strepavidin beads or 5.2 μm biotin beads were added to microglia for 90 minutes. Cells were moved to ice and stained with either a biotin or strepavidin labeled antibodies to identify un-ingested beads. To confirm the ability to identify intra-verses extracellular bound beads by flow cytometry microglia were treated with Cytochalasin D for 30 minutes prior to the addition of beads.

H4 cells = test: Bead phagocytosis in H4 cells with tetracycline inducible synuclein transfected with Rab proteins; type: cell-based, human; settings: synuclein overexpressing H4 cells (tetracycline 48 hours), 4 μM beads 90 minutes
Protocol: FIG. 11: Rabs proteins were transfected into a stable H4 cells containing a tetracycline inducible synuclein construct. Cells were treated or untreated with tetracycline for 48 hours and then fed 4 μM beads for 90 minutes and a phagocytic index calculated.
In quantifying phagocytosis in cells overexpressing synuclein we noticed that synuclein translocates to the phagocytic cup and localized with regions of active actin rearrangement. Under resting conditions synuclein resides in the cytoplasm and following 45 and 90 minutes of bead addition synuclein translocates to sites of actin polymerization and bead contact. SNARE complexes are composed of three components, a SNAP, a syntaxin, and a VAMP protein. These three proteins come together and prime vesicles for fusion with the plasma membrane. On fusion vesicles release their contents and SNARE complexes are disassembled by two adaptor proteins, NSF and α-SNAP. Some members from these dissociated complexes recycle back to the cytoplasm via recycling endosomes and can be used to prime subsequent fusion events. All three protein members of the SNARE complex are alpha helices and on assembly form an energy favorable, very unique SDS stable complex. Although these complexes resist SDS dissociation they will dissociate following boiling. Therefore one SNARE complexes can be flowed as SDS stable complexes in boiled and unboiled lysates. We hypothesized that defective vesicle mobilization may be associated with or due to altered SNARE complex formation of SNARE complex. H4 cells transfected with synuclein were fed beads for 15, 45, or 90 minutes, samples were lysed and run on western formation. […] Alterations in SNARE complexes were also observed in microglia isolated from synuclein genomic mice (data not shown). To elucidate how synuclein alters vesicle trafficking and SNARE complex formation/function we assessed interaction of synuclein with components of the SNARE family. […] To test the possibility that molecules which facilitate vesicle movement could overcome the ability of elevated levels of synuclein to block phagocytosis, a stable H4 cell line overexpressing synuclein was transfected with various Rab proteins. We verified that the Rab proteins were overexpressed and phagocytosis was assessed in wild type and synuclein over expressing cells.

LRRK2 [1] = test: LRRK2 mRNA, protein and kinase activity in INF-γ treated microglia; type: cell-based; settings: INF-γ treatment of microglia
From the text: FIG. 16: INF-γ treatment of microglia induced LRRK2 mRNA transcript levels and protein levels by about 2 fold.
We have tested the effect of LRRK2 kinase inhibitors on phagocytosis in cells transformed with LRRK2 G2019S. We have a number of compounds known to inhibit LRRK2 kinase activity. Some of these compounds have enantiomers that are known inhibitors of either cFMS or PLK2 inhibitors but have minimal effect on LRRK2. Pairs of enantiomers one of which is known inhibitor of LRRK2 and one of which inhibits cFMS or PLK2 without substantially effect on LRRK2 can be used to measure LRRK2-specific effects on phagocytosis.

LRRK2 [2] = test: LRRK2 phosphorylation in stimulated murine microglia (PT1967 P-LRRK2 antibody); type: cell-based, mouse; settings: primary microglia stimulated for various times
Protocol: Although neurons express LRRK2, this expression appears to be low relative to that of B-cells and macrophages. […] For example, murine microglia were stimulated with MCSF for various times or […] beads for 30 minutes. LRRK2 phosphorylation was probed with PT1967 P-LRRK2 antibody.

Molecule: C=C1[C@@H](C)[C@H]2[C@H](Cc3ccccc3)NC(=O)[C@]23[C@H](OC(C)=O)/C=C/[C@@](C)(O)C(=O)[C@@H](C)C/C=C/[C@H]3[C@@H]1O [Cytochalasin D]
- phagocytosis of 5 and 6 micron beads (microglia): blocked this phagocytosis

B1: Rab11b: Rab protein (Swiss Prot Q15907) overexpressed by transfection in H4 cells (protein, UniProt Q15907 2-215, looked up)
Ras-related protein Rab-11B: GTRDDEYDYLFKVVLIGDSGVGKSNLLSRFTRNEFNLESKSTIGVEFATRSIQVDGKTIKAQIWDTAGQERYRAITSAYYRGAVGALLVYDIAKHLTYENVERWLKELRDHADSNIVIMLVGNKSDLRHLRAVPTDEARAFAEKNNLSFIETSALDSTNVEEAFKNILTEIYRIVSQKQIADRAAHDESPGNNVVDISVPPTTDGQKPNKLQCC
- phagocytosis (phagocytic index) (H4 cells): rescued synuclein modulation of phagocytosis
- phagocytosis (phagocytic index) (H4 cells; listed as Rab11B): restored phagocytosis

B2: Rab3b: Rab protein (Swiss Prot P20337) overexpressed by transfection in H4 cells (protein, UniProt P20337 2-219, looked up)
Ras-related protein Rab-3B: ASVTDGKTGVKDASDQNFDYMFKLLIIGNSSVGKTSFLFRYADDTFTPAFVSTVGIDFKVKTVYRHEKRVKLQIWDTAGQERYRTITTAYYRGAMGFILMYDITNEESFNAVQDWATQIKTYSWDNAQVILVGNKCDMEEERVVPTEKGQLLAEQLGFDFFEASAKENISVRQAFERLVDAICDKMSDSLDTDPSMLGSSKNTRLSDTPPLLQQNCSC
- phagocytosis (phagocytic index) (H4 cells): rescued synuclein modulation of phagocytosis
- phagocytosis (phagocytic index) (H4 cells; listed as Rab3B): restored phagocytosis

B3: INFγ: interferon gamma, described as agonist of LRRK2 (protein, UniProt P01579 24-161, looked up)
Interferon gamma: QDPYVKEAENLKKYFNAGHSDVADNGTLFLGILKNWKEESDRKIMQSQIVSFYFKLFKNFKDDQSIQKSVETIKEDMNVKFFNSNKKKRDDFEKLTNYSVTDLNVQRKAIHELIQVMAELSPAAKTGKRKRSQMLFRG
- LRRK2 kinase activity (LRRK2 phosphorylation, LRRK-tide phosphorylation assay) (LRRK2 [1]): apparent increase in LRRK2 kinase activity

B4: MCSF: stimulus that engages the actin cytoskeleton, used on murine microglia (protein, UniProt P07141 33-552, looked up)
Macrophage colony-stimulating …: KEVSEHCSHMIGNGHLKVLQQLIDSQMETSCQIAFEFVDQEQLDDPVCYLKKAFFLVQDIIDETMRFKDNTPNANATERLQELSNNLNSCFTKDYEEQNKACVRTFHETPLQLLEKIKNFFNETKNLLEKDWNIFTKNCNNSFAKCSSRDVVTKPDCNCLYPKATPSSDPASASPHQPPAPSMAPLAGLAWDDSQRTEGSSLLPSELPLRIEDPGSAKQRPPRSTCQTLESTEQPNHGDRLTEDSQPHPSAGGPVPGVEDILESSLGTNWVLEEASGEASEGFLTQEAKFSPSTPVGGSIQAETDRPRALSASPFPKSTEDQKPVDITDRPLTEVNPMRPIGQTQNNTPEKTDGTSTLREDHQEPGSPHIATPNPQRVSNSATPVAQLLLPKSHSWGIVLPLGELEGKRSTRDRRSPAELEGGSASEGAARPVARFNSIPLTDTGHVEQHEGSSDPQIPESVFHLLVPGIILVLLTVGGLLFYKWKWRSHRDPQTLDSSVGRPEDSSLTQDEDRQVELPV
- LRRK2 phosphorylation (LRRK2 [2]): can be enhanced
